What was measured:
Assay in all cases: fluorescence polarisation; competition: unlabelled peptide in serial dilution displaces a FITC-labelled probe peptide from the bait domain (master mix with protein at four times the KD of the probe, 10 nM probe, 2 mM DTT); 50 mM KPO4 or NaPO4 pH 7.5; triplicates; probe for KEAP1 Kelch: FITC-NFE2L1 228-243, other probes in Dataset EV6
Details in all cases: both partners purified
[1] = biological target: T1, 14‐3‐3 SFN, tag cleaved, for affinity measurements (human)
T1 chain: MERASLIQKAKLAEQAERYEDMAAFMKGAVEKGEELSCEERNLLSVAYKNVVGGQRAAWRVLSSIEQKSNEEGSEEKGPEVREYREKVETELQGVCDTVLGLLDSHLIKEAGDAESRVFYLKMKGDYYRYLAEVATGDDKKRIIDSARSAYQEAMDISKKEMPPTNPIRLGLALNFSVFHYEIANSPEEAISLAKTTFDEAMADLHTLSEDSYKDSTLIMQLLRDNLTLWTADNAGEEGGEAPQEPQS

[2] = biological target: KEAP1 Kelch, MBP‐tagged domain, for affinity measurements (human)
Sequence of KEAP1 Kelch, MBP‐tagged domain, for affinity measurements (human) (chain, as listed by the source): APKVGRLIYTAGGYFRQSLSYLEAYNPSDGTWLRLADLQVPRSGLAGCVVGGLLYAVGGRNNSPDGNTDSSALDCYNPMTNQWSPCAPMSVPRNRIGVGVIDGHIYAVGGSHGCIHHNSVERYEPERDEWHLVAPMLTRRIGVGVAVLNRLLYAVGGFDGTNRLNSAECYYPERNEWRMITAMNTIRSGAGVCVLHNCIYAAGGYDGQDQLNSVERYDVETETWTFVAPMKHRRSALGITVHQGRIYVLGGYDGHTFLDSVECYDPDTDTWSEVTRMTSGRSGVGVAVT

[3] = biological target: T2, TLN1 PTB, tag cleaved, for affinity measurements (human)
T2 chain: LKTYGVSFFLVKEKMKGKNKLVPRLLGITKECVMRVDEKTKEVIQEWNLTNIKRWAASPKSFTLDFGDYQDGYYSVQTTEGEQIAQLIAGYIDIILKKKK

B1: MAP1A_(1836–1851) peptide, synthetic (peptide)
peptide: PSWLADIPPWVPKDRP
notes: microtubule-associated protein 1A, human, residues 1836-1851; source: synthetic peptide, bought: GeneCust
- Ki [1]: 355 µM

B2: PTTG1_(4–19) peptide from securin, synthetic (peptide, UniProt O95997 4-19, looked up)
peptide: LIYVDKENGEPGTRVV
notes: securin, human, residues 4-19 (NGE containing); source: synthetic peptide, bought: GeneCust
- Ki [2]: 1 µM

B3: ITB3_(763–778) peptide from integrin beta‐3, synthetic (peptide)
peptide: AKWDTANNPLYKEATS
notes: integrin beta-3, human, residues 763-778; source: synthetic peptide, bought: GeneCust
- Ki [3]: 500 µM

B4: NFE2L2 E79K peptide, synthetic (peptide)
chain: Ac-YDEKTGEFLPIQPAQH-NH2
- fold loss of affinity against the wild-type peptide [2]: 1000 fold

B5: NFE2L2 T80K peptide, synthetic (peptide)
chain: Ac-YDEEKGEFLPIQPAQH-NH2
- fold loss of affinity against the wild-type peptide [2]: 1000 fold

— PMC8769072, “Proteome‐scale mapping of binding sites in the unstructured regions of the human proteome” (Molecular Systems Biology, 2022)
